{"source": "patent US20120114590A1", "about": "(priority 2005, published 2012)", "molecules": {"B1": {"name": "human zcytor19-Fc homodimer (Fc fusion, not shown: a dimerising Fc or GST)", "chain": "RPRLAPPQNVTLLSQNFSVYLTWLPGLGNPQDVTYFVAYQSSPTRRRWREVEECAGTKELLCSMMCLKKQDLYNKFKGRVRTVSPSSKSPWVESEYLDYLFEVEPAPPVLVLTQTEEILSANATYQLPPCMPPLDLKYEVAFWKEGAGNKTLFPVTPHGQPVQITLQPAASEHHCLSARTIYTFSVPKYSKFSKPTCFLLEVPEANWA"}, "B2": {"name": "murine zcytor19-Ig homodimer (Fc fusion, part only; not given: Ig Fc portion, mouse, UniProt Q8CGK5 21-227, looked up, part only)", "chain, part": "RPRLAPPRNVTLFSQNFTVYLTWLPGLGSPPNVTYFVTYQSYIKTGWRPVEHCAGIKALVCPLMCLKKLNLYSKFKGRVQAASAHGRSPRVESRYLEYLFDVELAPPTLVLTQMEKILRVNATYQLPPCMPSLELKYQVEFWKEGLGSKTLFPDTPYGQPVQIPLQQGASRRHCLSARTVYTLIDIKYSQFSEPSCIFLEAPGDKRA"}, "B3": {"name": "human zcytor19-Fc homodimeric soluble receptor: homodimeric soluble receptor Fc fusion (protein)", "chain": "B1 chain", "modifications": "left off: a dimerising Fc or GST", "notes": "homodimeric soluble receptor Fc fusion"}, "B4": {"name": "huCRF2-4-Fc: homodimeric soluble receptor Fc fusion (protein)", "chain": "MVPPPENVRMNSVNFKNILQWESPAFAKGNLTFTAQYLSYRIFQDKCMNTTLTECDFSSLSKYGDHTLRVRAEFADEHSDWVNITFCPVDDTIIGPPGMQVEVLADSLHMRFLAPKIENEYETWTMKNVYNSWTYNVQYWKNGTDEKFQITPQYDFEVLRNLEPWTTYCVQVRGFLPDRNKAGEWSEPVCEQTTHDETVPS", "modifications": "left off: a dimerising Fc or GST", "notes": "as for B3"}, "B5": {"name": "muzcytor19-Ig: murine homodimeric soluble receptor Ig fusion (protein)", "chain": "B2 chain, part", "modifications": "left off: a dimerising Fc or GST", "notes": "murine homodimeric soluble receptor Ig fusion"}}, "key": {"[1]": {"tested_on": "liver, spleen and blood of mice", "assay": "ISG gene expression (OAS, Pkr, Mx1) in liver, spleen and blood of injected C57BL/6 mice (real-time PCR)", "type": "in vivo, mouse", "settings": "livers of mice, 100 μg i.v.", "description": "Mice were sacrificed at various time points (1 hr-48 hr). Spleens and livers were isolated from mice, and RNA was isolated. RNA was also isolated from the blood cells. The cells were pelleted and RNA isolated from pellets using RNAEasy®-kit (Qiagen). RNA was treated with DNase (Amicon) to rid RNA of any contaminating DNA. cDNA was generated using Perkin-Elmer RT mix (Perkin-Elmer). ISG gene induction was measured by real-time PCR using primers and probes specific for mouse OAS, Pkr and Mx1. To obtain quantitative data, HPRT real-time PCR was duplexed with ISG PCR. A standard curve was calculated using known amounts of IFN-stimulated mouse PBLs. All data are shown as expression relative to internal HPRT expression."}, "[2]": {"target": "T1, zcyto24 (mouse IL-28A) (mouse) (UniProt Q4VK74)", "T1 sequence": "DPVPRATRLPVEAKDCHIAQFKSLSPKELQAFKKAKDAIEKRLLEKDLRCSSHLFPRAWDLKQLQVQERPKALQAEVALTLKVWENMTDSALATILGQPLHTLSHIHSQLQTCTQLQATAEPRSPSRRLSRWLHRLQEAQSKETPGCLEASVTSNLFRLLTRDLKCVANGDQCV", "assay": "cell-based or functional assay"}, "[3]": {"target": "zcyto21 (human IL-29) (human) (UniProt Q8IU54)", "sequence (Q8IU54 20-200)": "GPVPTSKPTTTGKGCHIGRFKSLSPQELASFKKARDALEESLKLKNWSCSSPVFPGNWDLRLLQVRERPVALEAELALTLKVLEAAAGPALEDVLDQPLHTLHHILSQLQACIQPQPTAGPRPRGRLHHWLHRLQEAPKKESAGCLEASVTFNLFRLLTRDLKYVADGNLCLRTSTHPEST", "assay": "cell-based or functional assay"}, "[4]": {"target": "T2, zcyto20 (human IL-28A) (human) (UniProt Q8IZJ0)", "T2 sequence": "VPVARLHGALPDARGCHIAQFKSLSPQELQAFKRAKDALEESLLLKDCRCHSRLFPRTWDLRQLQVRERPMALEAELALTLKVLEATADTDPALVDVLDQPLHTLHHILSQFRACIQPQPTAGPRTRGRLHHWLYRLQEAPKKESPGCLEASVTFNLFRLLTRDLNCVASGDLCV", "assay": "cell-based or functional assay"}, "[5]": {"tested_on": "293 HEK cells overexpressing zcytor19", "assay": "Inhibition of ligand-induced ISRE-luciferase signaling by soluble receptors", "type": "cell-based, human", "settings": "10 micrograms/ml soluble receptor"}}}
{"molecule": "MetIL-29-PEG: E. coli derived pegylated Met IL-29", "values": [{"measurement": "Mx1 3 hr", "setting": "[1]; 3 hr", "result": "537.51 fold expression over HPRT expression"}, {"measurement": "OAS 3 hr", "setting": "[1]; 3 hr", "result": "91.29 fold expression over HPRT expression"}, {"measurement": "PKR 3 hr", "setting": "[1]; 3 hr", "result": "18.24 fold expression over HPRT expression"}, {"measurement": "Mx1 6 hr", "setting": "[1]; 6 hr", "result": "124.99 fold expression over HPRT expression"}, {"measurement": "OAS 6 hr", "setting": "[1]; 6 hr", "result": "65.93 fold expression over HPRT expression"}, {"measurement": "PKR 6 hr", "setting": "[1]; 6 hr", "result": "13.93 fold expression over HPRT expression"}, {"measurement": "Mx1 12 hr", "setting": "[1]; 12 hr", "result": "33.58 fold expression over HPRT expression"}, {"measurement": "OAS 12 hr", "setting": "[1]; 12 hr", "result": "54.04 fold expression over HPRT expression"}, {"measurement": "PKR 12 hr", "setting": "[1]; 12 hr", "result": "4.99 fold expression over HPRT expression"}, {"measurement": "Mx1 24 hr", "setting": "[1]; 24 hr", "result": "35.82 fold expression over HPRT expression"}, {"measurement": "OAS (24 hr)", "setting": "[1]; 24 hr", "result": "20.81 fold expression over HPRT expression"}, {"measurement": "PKR 24 hr", "setting": "[1]; 24 hr", "result": "3.77 fold expression over HPRT expression"}]}
{"molecule": "human CRF2-4-Fc homodimer (from UniProt Q08334 20-220) (Fc fusion)", "values": [{"measurement": "Percent Inhibition of Ligand-induced Interferon Stimulated Response Element (ISRE) Signaling by Soluble Receptors", "setting": "[2]", "result": 82, "unit": "%"}, {"measurement": "Percent Inhibition of Ligand-induced Interferon Stimulated Response Element (ISRE) Signaling by Soluble Receptors", "setting": "[3]", "result": 79, "unit": "%"}, {"measurement": "Percent Inhibition of Ligand-induced Interferon Stimulated Response Element (ISRE) Signaling by Soluble Receptors", "setting": "[4]", "result": 80, "unit": "%"}]}
{"molecule": "human zcytor19-Fc/human CRF2-4-Fc heterodimer (from UniProt Q08334 20-220) (Fc fusion)", "values": [{"measurement": "Percent Inhibition of Ligand-induced Interferon Stimulated Response Element (ISRE) Signaling by Soluble Receptors", "setting": "[2]", "result": 47, "unit": "%"}, {"measurement": "Percent Inhibition of Ligand-induced Interferon Stimulated Response Element (ISRE) Signaling by Soluble Receptors", "setting": "[3]", "result": 16, "unit": "%"}, {"measurement": "Percent Inhibition of Ligand-induced Interferon Stimulated Response Element (ISRE) Signaling by Soluble Receptors", "setting": "[4]", "result": 16, "unit": "%"}]}
{"molecule": "B1", "values": [{"measurement": "Percent Inhibition of Ligand-induced Interferon Stimulated Response Element (ISRE) Signaling by Soluble Receptors", "setting": "[2]", "result": 90, "unit": "%"}, {"measurement": "Percent Inhibition of Ligand-induced Interferon Stimulated Response Element (ISRE) Signaling by Soluble Receptors", "setting": "[3]", "result": 45, "unit": "%"}, {"measurement": "Percent Inhibition of Ligand-induced Interferon Stimulated Response Element (ISRE) Signaling by Soluble Receptors", "setting": "[4]", "result": 92, "unit": "%"}]}
{"molecule": "B2", "values": [{"measurement": "Percent Inhibition of Ligand-induced Interferon Stimulated Response Element (ISRE) Signaling by Soluble Receptors", "setting": "[2]", "result": 89, "unit": "%"}, {"measurement": "Percent Inhibition of Ligand-induced Interferon Stimulated Response Element (ISRE) Signaling by Soluble Receptors", "setting": "[3]", "result": 103, "unit": "%"}, {"measurement": "Percent Inhibition of Ligand-induced Interferon Stimulated Response Element (ISRE) Signaling by Soluble Receptors", "setting": "[4]", "result": 91, "unit": "%"}]}
{"molecule": "B3", "values": [{"measurement": "inhibition of zcyto2′-induced signaling", "setting": "[5]", "result": 45, "unit": "%"}]}
{"molecule": "B4", "values": [{"measurement": "effect on ligand-induced signaling", "setting": "[5]", "result": "No significant effects"}]}
{"molecule": "B5", "values": [{"measurement": "effect on ligand-induced signaling", "setting": "[5]", "result": "No significant effects"}]}
